# Measurements: patent publication US12103951B2, “Use of CGRP receptor antagonists in neuroprotection and neurological disorders” (priority 2016, dated 2024)
# Entries after “also recorded” stand apart in the source; their conditions may differ.
# Experiments:
# [1] = Rat laser glaucoma model: weight of animals; assay type: in vivo, Wistar rats
# [2] = 14-day subcutaneous rat study: mortality, clinical signs, body weight, feed consumption; assay type: in vivo, Sprague Dawley rats; conditions: s.c. daily 14 days
# Protocol: Sprague Dawley rats were administered the CGRP antagonist daily via the subcutaneous route for a period of 14 days, resulting in the surprising effect of LDL lowering. Fifty six animals (36 males and 20 females) were distributed into four groups (consisting each of 5 males and 5 females per group and 4 extra males each for testing group as backups). The groups were as follows: G1—Control, G2—Low dose—100 mcg/kg, G3—Intermediate dose—300 mcg/kg, G4—High dose—1000 mcg/kg.
# Rats from the treatment groups were dosed subcutaneously with CGRP receptor antagonists (SEQ ID NO: 1) reconstituted with normal saline at different dose levels per treatment group for 14 days. Control animals were dosed with the vehicle alone.
# The acclimatization period was, at a minimum, 7 days. For the randomization, animals were selected and grouped based on stratified randomization by using body weights one day before dosing (day 0) using an Excel program. The route of administration of the antagonist was by a subcutaneous method. The frequency of the administration was daily for fourteen days. The dose volume was set at 5 ml/kg of body weight. The duration of the treatment was fourteen days with administration occurring approximately at the same time each day.
# The following observations were recorded: • 1. […] Body Weight • Body weight was recorded on day 1, 7, 11 and 15. • 3. Feed Consumption • Feed consumption was recorded daily and reported weekly. • 4. Blood Collection and Laboratory Investigations • Blood samples for were collected from all animals on day 15. The animals were fasted overnight before blood sampling but allowed access to water ad libitum for hematology and biochemistry. Blood samples were drawn from the retro-orbital plexus using a micro-hematocrit heparinized glass capillary tube. Blood samples were centrifuged (3500 rpm) and after centrifugation plasma was separated for further analysis.
# C-nociceptors = assay: Spontaneous activity in C-nociceptors, rat crush-induced sciatic neuropathy (microneurography); conditions: 25 μg/Kg i.p.; for spontaneous activity in C-fibers (action potentials recorded in the sciatic nerve): after administration, FIG. 1
# Protocol: To investigate the effects of a CGRP receptor antagonist on pathological spontaneous activity in C-nociceptors the following experiments were performed on Sprague-Dawly rats. Crush-inducing sciatic neuropathy was produced in 12 male Sprague-Dawley rats. Spontaneous activity in injured C-nociceptors was then detected with microneurography and the response to CGRP receptor antagonist was assessed under unblind conditions. This study aimed to assess the effect of the CGRP receptor antagonist, on electrophysiological measures of spontaneous activity in subpopulations of injured C-nociceptors in a model of neuropathic pain, and to investigate the effects of the CGRP receptor antagonist on pathological spontaneous activity in peripheral C-nociceptors.
# All surgical procedures were performed under general anesthesia (ketamine 90 mg/kg+xylazine 10 mg/kg i.p. (intraperitoneal)). The sciatic nerve was exposed at mid-thigh level. A standardized injury was produced by crushing the nerve three times in succession with a very fine point forcep at a constant point, 90 mm from the tip of the third digit. The wound was then sutured by layers and disinfected with povidone iodine. The animals received an analgesic subcutaneous (s.c). dose of buprenorphine and were maintained in a warm environment until full recovery from the anesthetic, and were allowed to recover from the nerve injury for a minimum of 70 days.
# CGRP receptor antagonist (SEQ ID NO: 1) was dissolved according to manufacturer's instructions in saline solution, at a final concentration of 25 μg/Kg. Volumes of the intraperitoneal (i.p.) injected bolus ranged from 0.48 to 0.58 ml.
# Animals weighing 478±36 g (mean±SD) on the day of the recording were anesthetized with ketamine (90 mg/Kg) and xylazine (10 mg/Kg) injected i.p (intraperitoneal). Repeated administrations of one-half of the initial dose were performed as required to maintain the level of anesthesia, usually every hour.
# Recordings of the sciatic nerve electrical activity were obtained inserting a tungsten microelectrode (FHC, Bowdoinham, ME, USA, nominal impedance 50-100KΩ, shaft Ø 175 μm (Ø=diameter)) into the sciatic nerve trunk with the aid of a micromanipulator. The recording electrode was carefully advanced into the nerve with the micromanipulator until characteristic neural audio signal could be heard. The method follows the same principles of the microneurographic technique employed in human patients.
# The neural signals were first amplified with an isolated, high input impedance amplifier, band-pass filtered (maximum range 50-5000 Hz) and passed through a noise eliminator. The signal was then fed to an AM10 audio-monitor with noise clipper (Grass Technologies, Warwick, RI, USA) and to computers running separate software for collecting spontaneous and electrically evoked activity. Electrical stimuli were delivered to the cutaneous receptive field of the units by means of a constant current stimulator (DS7A, Digitimer, Welwyn Garden City, Hertfordshire, UK).
# Electrical stimuli were triggered and the responses to electrical stimulation recorded and analyzed with a PC and PCI-6221M data acquisition board (National Instruments, […], USA) running QTRAC software (©Institute of Neurology, London, UK). Spontaneous activity was digitized at 20 kHz and recorded continuously on one of the computers running LabChart software (PowerLab Systems, ADInstruments Ltd., Bella Vista, New South Wales, Australia). Analysis was performed with software written by Neuroscience Technologies, Science Park of Barcelona, Spain, to detect and quantify spontaneous activity.
# Trigger pulses were delivered to the stimulator at different frequencies necessary to induce ADS of conduction velocity of the recorded C-fibers. The digitized responses were stored on computer as raw data for off-line analysis.
# [3] = 10 min before vs 10 min after administration, paired t-test, listed as CGRP receptor antagonist
substance,measurement,setting,value
NH2-Ala-Cys-Asp-Thr-Ala-Ala-Cys-Val-Leu-Gly-Arg-Leu-Ser-Gln-Glu-Leu-His-Arg-Leu-Gln-Thr-Tyr-Pro-Arg-Thr-Asn-Val-Gly-Ser-Lys-Ala-Phe-NH2 (H-ACDTAACVLGRLSQELHRLQTYPRTNVGSKAF-NH2; ends and bridges not checked) [SEQ ID NO: 1],difference in the weight between the groups,"[1]; Mann-Whitney U test, P>0.05",no significant difference
same,Baseline weight,"[1]; mean ± SD, baseline",538 ± 21 g
same,Weight prior to sacrifice,"[1]; mean ± SD, end of two-week study",524 ± 27 g
same,food consumption,[2]; all study groups,normal
same,body weight among the groups,[2],no statistically significant difference
same,mortality or morbidity,"[2]; 100, 300, 1000 mcg/kg",no mortality or morbidity
same,clinical signs,"[2]; high dose = 1000 mcg/kg, all animals normalized from day 12",no clinical signs were observed during the entire study period except for four males from the high dose group that showed lethargy on day 10
same,SLI/10 min (Significant Latency Increase),C-nociceptors; [3],did not reveal a statistically significant effect; also recorded: No significant differences were observed
same,TI (%) (Total Increase),C-nociceptors; [3],did not reveal a statistically significant effect; also recorded: No significant differences were observed
same,spontaneous activity in C-fibers (action potentials recorded in the sciatic nerve),C-nociceptors; rat crush sciatic neuropathy,preventing further spontaneous activity in the C-fibers
same,spontaneous activity in C-fibers (action potentials recorded in the sciatic nerve),"C-nociceptors; rat crush sciatic neuropathy, listed as CGRP receptor antagonist",virtually no excitation observed
same,spontaneous activity at long intervals after the administration,"C-nociceptors; rat crush sciatic neuropathy, up to 90 min",less spontaneous activity
same,Morbidity and mortality,"C-nociceptors; rats, whole procedure",in good condition during the whole procedure
